± gives the uncertainty stated by the source.
Experiment: amyloid nucleation score (Sup35N fusion, yeast selection) (log enrichment); library NNK2; higher = more nucleation; inactive = no reads after selection
Method in brief: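 Peptides of 20 random codons fused to Sup35N were expressed in psi-negative yeast, induced 24 hours with 100 μM copper sulfate, then grown 7 days at 30°C on medium lacking adenine and uracil. Input and output plasmid inserts were Illumina-sequenced. Nucleation score is the DiMSum log enrichment of output over input reads, centred on the mode score of non-aggregating sequences, excluding sequences with under 100 input reads. Random libraries had three technical output replicates.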

Going from SDLFVNICCRPNRMGV to SDNTLCLTGDSAYN, the amyloid nucleation score rises from -0.521 ± 0.48 to 0.307 ± 0.2.

Compared with SDPLSFGFGQMWIGVHNEFY, SDPSNLSMMCTQQRLAGSD is lower in amyloid nucleation score: 2.2 ± 0.16 for the first, -0.189 ± 0.49 for the second.

Going from SDRGLRACQCVCWDFDSISM to SDSSRFVDKGSYRYKRREWE, the amyloid nucleation score falls from 6.212 ± 0.046 to -0.161 ± 0.65.

SDSTSVLPGRTYWVHFSAQG and SDVSREVKV are within error of each other in amyloid nucleation score: 0.086 ± 0.61 for the first, -0.038 ± 0.37 for the second.

First: SDVYLTICHFFGHNLKVLPR
Second: SEGIADVLSVSCWCYPCRPY
The amyloid nucleation score of the first is higher: 1.38 ± 0.26 for the first, -1.21 ± 1.1 for the second.

Compared with SEGRATARQLLVKDTLFV, SELPDIRWHTGWMFLSCAWN is lower in amyloid nucleation score: 4.06 ± 0.088 for the first, -0.397 ± 0.63 for the second.

SELRKVRCNG and SEMDPNKAMRIGW are within error of each other in amyloid nucleation score: 0.813 ± 0.46 for the first, 0.174 ± 0.21 for the second.

SEVHSWANGKVLTLYSRMWL and SFCVLIRYNRFGAIS are within error of each other in amyloid nucleation score: 0.885 ± 0.28 for the first, 1.24 ± 0.22 for the second.

SFCWRYMCRFVMDSFITVPR and SFDIPT are within error of each other in amyloid nucleation score: -0.423 ± 0.34 for the first, -0.444 ± 0.63 for the second.

SFDVLL and SFGDTSKRWLFAVGGCKCRL are within error of each other in amyloid nucleation score: -0.568 ± 0.64 for the first, 0.371 ± 0.51 for the second.

Going from SFGRAENNSSARDMYV to SFIGLETCQFSFHLIF, the amyloid nucleation score rises from -0.535 ± 0.28 to 4.15 ± 0.092.

First: SFIWHLPFVC
Second: SFKLYLYVGAVFFRLLSLVS
The amyloid nucleation score of the first is higher: 1.24 ± 0.4 for the first, -1.08 ± 0.76 for the second.

SFLIFRDVSFAGEGL and SFLYLPDGTDMI are within error of each other in amyloid nucleation score: -1.21 ± 1.1 for the first, 0.171 ± 0.29 for the second.

First: SFNNVKLDGRSF
Second: SFQCSWIG
The amyloid nucleation score of the first is lower: -0.59 ± 0.64 for the first, 3.04 ± 0.088 for the second.

Compared with SFQPMRQFNFMINLWTVGAA, SFRYLCIRNGTSYGMYTSPV is lower in amyloid nucleation score: 7.179 ± 0.056 for the first, 0.478 ± 0.8 for the second.

Compared with SFSCNNSLDYKGNFS, SFSDVLNSGVRCF is lower in amyloid nucleation score: 1.48 ± 0.18 for the first, 0.234 ± 0.35 for the second.

SFTCALRLGVRGHWLIVTSF and SFVTTKSSFL are within error of each other in amyloid nucleation score: 0.276 ± 1 for the first, -0.205 ± 0.74 for the second.

Compared with SFYDARYFQCDVFAVVRIRR, SFYIRGYISFLGHRTW is higher in amyloid nucleation score: 0.853 ± 0.47 for the first, 2.57 ± 0.17 for the second.

SGCPNDWQYFSS and SGDLMYSGRTSPMPAAQKFV are within error of each other in amyloid nucleation score: -1.08 ± 0.54 for the first, -0.393 ± 1.1 for the second.

Compared with SGGVR, SGHTFVFFYDSK is higher in amyloid nucleation score: 0.94 ± 0.32 for the first, 5.95 ± 0.061 for the second.

Going from SGNAGLFNRARGSVVTAVLV to SGRIYSGDETMFRWECRYWC, the amyloid nucleation score rises from 0.463 ± 0.64 to 3.25 ± 0.051.

First: SGVIEIMFEKSHRLHCCLFC
Second: SGWELRQITFGMTDCIGG
The amyloid nucleation score of the first is higher: 1.08 ± 0.41 for the first, -0.328 ± 0.42 for the second.

SHCGHRSATGVLSPLQTKGH and SHEFSRMLEEFWDHNNVRSH are within error of each other in amyloid nucleation score: -0.159 ± 0.54 for the first, -1.1 ± 0.48 for the second.

First: SHFADSKVHVWSMSQLATCC
Second: SHGPLR
The amyloid nucleation score of the first is lower: 0.22 ± 0.29 for the first, 5.556 ± 0.053 for the second.

Going from SHILSNVTYGLADVAFCACS to SHIPIWRKLSVQFSVKIVLE, the amyloid nucleation score falls from 7.542 ± 0.067 to -0.637 ± 1.1.

First: SHNDISSRC
Second: SHQLICFSWRLDFYHRGLLQ
The amyloid nucleation score of the first is lower: -0.795 ± 0.49 for the first, 2.5 ± 0.13 for the second.

First: SHRCELKWTGLVMNYKVVHC
Second: SHTWKQMRYYLDNWSLY
The amyloid nucleation score of the first is higher: 1.71 ± 0.25 for the first, -0.288 ± 1 for the second.

SIAGVIMVDSSSLSM and SIDSRYW are within error of each other in amyloid nucleation score: -1.01 ± 0.78 for the first, -0.283 ± 0.63 for the second.

Compared with SIFRWKREKAVGLYPLHQVA, SIFVTYSLRTYINYK is higher in amyloid nucleation score: -0.094 ± 0.76 for the first, 5.95 ± 0.062 for the second.

SIILLDYCPRRNSSTIALRH and SILATYPMVRSRISIMNATL are within error of each other in amyloid nucleation score: -0.118 ± 0.43 for the first, -0.174 ± 0.28 for the second.

Compared with SILFFKGGLRRSLEHLACTA, SILLLIKVYFWGLCNPMILA is lower in amyloid nucleation score: 0.635 ± 0.52 for the first, -1.65 ± 1 for the second.

SILLRKRQELSNFTMW and SIMGYGFDVRCELCDVTGGW are within error of each other in amyloid nucleation score: -0.67 ± 0.76 for the first, -0.079 ± 0.53 for the second.

Going from SINLLLGAGVVGGGLVLYGS to SIRLYSCSMVLTSSSVNCYQ, the amyloid nucleation score falls from 2.45 ± 0.14 to 1.86 ± 0.17.

Compared with SIRSFSFISESNQLLEHVRK, SISLLMICCDL is higher in amyloid nucleation score: 0.119 ± 0.54 for the first, 8.511 ± 0.04 for the second.

Compared with SIYFKVIATTSVYRLMPTVW, SKCLSIPISCFTCVLLCYFF is higher in amyloid nucleation score: -0.291 ± 0.74 for the first, 0.936 ± 0.17 for the second.

Going from SKCVWIKDQNFFQVDTNESI to SKDMCRRCCIRNLRRMSDSN, the amyloid nucleation score falls from 1.73 ± 0.34 to -0.443 ± 0.26.

SKFFCVSSVRFRLCVWG and SKFNFIYCAGDQLSYRYRLG are within error of each other in amyloid nucleation score: -0.14 ± 1 for the first, -0.728 ± 1 for the second.

SKFVSKSEV and SKGSWIDVSYDLV are within error of each other in amyloid nucleation score: -0.983 ± 1.1 for the first, -0.132 ± 0.37 for the second.

Compared with SKHFIVTVLTAITSNVSFSM, SKIVCDMFLGHEDLPCTRLF is lower in amyloid nucleation score: 2.38 ± 0.066 for the first, 0.057 ± 1.1 for the second.

First: SKNVFKMGLDTSH
Second: SKQTITFRSVQEDSWRRFGH
The amyloid nucleation score of the first is lower: -1.22 ± 0.32 for the first, 5.49 ± 0.076 for the second.

Compared with SKVRLQSGYTKHERKNFHWL, SKWYVGRHFPPWPR is higher in amyloid nucleation score: -0.001 ± 0.34 for the first, 0.769 ± 0.24 for the second.

Compared with SLAFNPISCAANLPFFHIQF, SLAFYTTYNNKILGNS is higher in amyloid nucleation score: 0.29 ± 0.77 for the first, 3.08 ± 0.069 for the second.

Going from SLARSTRFLYWSGNELVFIS to SLCPCLMIIS, the amyloid nucleation score falls from 3.66 ± 0.082 to -0.852 ± 0.38.

SLEGKSWGCSTSNSLKGDKG and SLFDFAVFNMNYESNACISR are within error of each other in amyloid nucleation score: -0.06 ± 1.1 for the first, 0.451 ± 0.27 for the second.

SLFRVKGAVLEVLVPRMLLY and SLFVITYRPAYSSDFILNGG are within error of each other in amyloid nucleation score: 0.51 ± 0.41 for the first, 0.763 ± 0.43 for the second.

First: SLGIQRARNAMSNTPFALGS
Second: SLHRFYYSHLYALRMRGNSR
The amyloid nucleation score of the first is lower: 0.596 ± 0.36 for the first, 6.16 ± 0.091 for the second.

SLKVHSWFGNIYSDFLLTSV and SLPIVEDITGYPLRSHWG are within error of each other in amyloid nucleation score: -0.55 ± 0.79 for the first, 0.172 ± 0.27 for the second.

Compared with SLPPLMWGAMMRRRRRGSST, SLRFGYNFKFLAMIKFPHIR is lower in amyloid nucleation score: 5.717 ± 0.056 for the first, -0.644 ± 0.78 for the second.

First: SLRYLHFGVDHLS
Second: SLSDYFGEWISA
The amyloid nucleation score of the first is higher: 3.94 ± 0.055 for the first, -0.422 ± 1.1 for the second.

First: SLSRCALL
Second: SLSRGLC
The amyloid nucleation score of the first is lower: -0.789 ± 0.39 for the first, 0.404 ± 0.45 for the second.

SLVCM and SLVLVDFAYSWMSGSAFWFF are within error of each other in amyloid nucleation score: -0.713 ± 0.29 for the first, -1.09 ± 1.1 for the second.

SLVYKGLCILSTLFLYFDFL and SLYKHSTHWRLCSTMAIVKP are within error of each other in amyloid nucleation score: -0.337 ± 1 for the first, 0.953 ± 0.51 for the second.

Going from SLYLSWYDIFLMYGCWNVVR to SMDGSQDCTTKLNWSFHSVF, the amyloid nucleation score rises from 0.638 ± 0.37 to 3.88 ± 0.066.

Compared with SMDRIQEGLHRQLVFDVSE, SMEAFYRGFFKTPWSY is lower in amyloid nucleation score: 0.624 ± 0.35 for the first, -0.2 ± 0.29 for the second.

Going from SMIIQTQHI to SMILVHKSNLQFLGKDDTQS, the amyloid nucleation score rises from 0.024 ± 0.55 to 6.539 ± 0.025.

SMISWATMVSRRDYLYMCV and SMPMGGERIWVIYCRFQVLS are within error of each other in amyloid nucleation score: -0.216 ± 0.45 for the first, -0.585 ± 0.35 for the second.

With SDLWSIPFFGFGDPPMGFFR the amyloid nucleation score was “inactive”.
For SDLYNSSFEVLYSSYCPDVW, the amyloid nucleation score was “inactive”.
With SDTKCLHY the amyloid nucleation score was “inactive”.
With SGIGVNSGAGRNMDLCDLKR the amyloid nucleation score was “inactive”.
In the case of SGYMAHVLVFLSEGISVPC, the amyloid nucleation score is reported as “inactive”.
With SHINFYVLEFWTFRIGDVFV the amyloid nucleation score was “inactive”.
For SINYKALAS, the amyloid nucleation score was “inactive”.
With SITFFKNAFVAIHIAR the amyloid nucleation score was “inactive”.
In the case of SIWINFLNLWYQCFISSILG, the amyloid nucleation score is reported as “inactive”.
In the case of SKVSKGLHST, the amyloid nucleation score is reported as “inactive”.
In the case of SLNYIFLNLCRYLSCGIYIH, the amyloid nucleation score is reported as “inactive”.
In the case of SLSFLKSGPLA, the amyloid nucleation score is reported as “inactive”.
With SLSWLWFLNSKSRMSTDISV the amyloid nucleation score was “inactive”.
For SLYCF, the amyloid nucleation score was “inactive”.
